According to publication PMC10319725, “A mechanical-coupling mechanism in OSCA/TMEM63 channel mechanosensitivity” (Nature Communications, 2023):

What was measured:
[1] = target: the molecule itself; experiment: SEC; fluorescence-detection SEC (FSEC) of detergent-solubilised Expi293F cells (1% LMNG, 0.1% CHS; also DDM or GDN), Superose 6 increase 5/150 in TBS (20 mM Tris pH 8.0, 150 mM NaCl) with 10 uM LMNG, GFP fluorescence detected
[2] = target: the molecule itself; experiment: cryo-EM structure; purified AtOSCA1.1 reconstituted in MSPE3D1 lecithin nanodiscs, TBS
[3] = target: the molecule itself; experiment: cryo-EM structure; purified AtOSCA3.1 in a detergent environment; two conformations (contracted, extended) in one data set

B1: AtOSCA1.1-CGFP (natural protein, Arabidopsis thaliana)
chain: MATLKDIGVSAGINILTAFIFFIIFAFLRLQPFNDRVYFSKWYLRGLRSSPASGGGFAGRFVNLELRSYLKFLHWMPEALKMPERELIDHAGLDSVVYLRIYWLGLKIFAPIAMLAWAVLVPVNWTNNELELAKHFKNVTSSDIDKLTISNIPEGSNRFWAHIIMAYAFTIWTCYMLMKEYETVANMRLQFLASEGRRPDQFTVLVRNVPPDPDETVSELVEHFFLVNHPDNYLTHQVVCNANKLADLVSKKTKLQNWLDYYQLKYTRNNSQIRPITKLGCLGLCGQKVDAIEHYIAEVDKTSKEIAEERENVVNDQKSVMPASFVSFKTRWAAAVCAQTTQTRNPTEWLTEWAAEPRDIYWPNLAIPYVSLTVRRLVMNVAFFFLTFFFIIPIAFVQSLATIEGIEKVAPFLKVIIEKDFIKSLIQGLLAGIALKLFLIFLPAILMTMSKFEGFTSVSFLERRSASRYYIFNLVNVFLGSVIAGAAFEQLNSFLNQSPNQIPKTIGMAIPMKATFFITYIMVDGWAGVAGEILMLKPLIIYHLKNAFLVKTEKDREEAMNPGSIGFNTGEPQIQLYFLLGLVYAPVTPMLLPFILVFFALAYVVYRHQIINVYNQEYESAAAFWPDVHGRVITALIISQLLLMGLLGTKHAASAAPFLIALPVITIGFHRFCKGRFEPAFVRYPLQEAMMKDTLERAREPNLNLKGYLQDAYIHPVFKGGDNDDDGDMIGKLENEVIIVPTKRQSRRNTPAPSRISGESSPSLAVINGKEV
notes: AtOSCA1.1 from Arabidopsis thaliana, UniprotKB Q9XEA1; cDNA cloned into a C-terminally GFP-tagged BacMam vector; His8 and FLAG lie after GFP in the vector; also called Arabidopsis thaliana OSCA1.1; source: Expi293F, transfected, solubilised in LMNG-CHS, in cleared lysate; not shown: GFP, C-terminal, kept
- stoichiometry N [1]: 2

B2: AtOSCA1.1 in lipid nanodisc (natural protein, Arabidopsis thaliana)
chain: B1 chain
notes: AtOSCA1.1 from Arabidopsis thaliana, UniprotKB Q9XEA1; GFP removed by HRV3C protease; His8 and FLAG lie after GFP in the vector and were probably removed with it; Embedded in MSPE3D1 lecithin nanodiscs; also called extended state of AtOSCA1.1; not shown: GFP, C-terminal, cleaved
- stoichiometry N [2]: 2

B3: AtOSCA3.1 (natural protein, Arabidopsis thaliana)
chain: MEFGSFLVSLGTSFVIFVILMLLFTWLSRKSGNAPIYYPNRILKGLEPWEGTSLTRNPFAWMREALTSSEQDVVNLSGVDTAVHFVFLSTVLGIFACSSLLLLPTLLPLAATDNNIKNTKNATDTTSKGTFSQLDNLSMANITKKSSRLWAFLGAVYWISLVTYFFLWKAYKHVSSLRAQALMSADVKPEQFAILVRDMPAPPDGQTQKEFIDSYFREIYPETFYRSLVATENSKVNKIWEKLEGYKKKLARAEAILAATNNRPTNKTGFCGLVGKQVDSIEYYTELINESVAKLETEQKAVLAEKQQTAAVVFFTTRVAAASAAQSLHCQMVDKWTVTEAPEPRQLLWQNLNIKLFSRIIRQYFIYFFVAVTILFYMIPIAFVSAITTLKNLQRIIPFIKPVVEITAIRTVLESFLPQIALIVFLAMLPKLLLFLSKAEGIPSQSHAIRAASGKYFYFSVFNVFIGVTLAGTLFNTVKDIAKNPKLDMIINLLATSLPKSATFFLTYVALKFFIGYGLELSRIIPLIIFHLKKKYLCKTEAEVKEAWYPGDLSYATRVPGDMLILTITFCYSVIAPLILIFGITYFGLGWLVLRNQALKVYVPSYESYGRMWPHIHQRILAALFLFQVVMFGYLGAKTFFYTALVIPLIITSLIFGYVCRQKFYGGFEHTALEVACRELKQSPDLEEIFRAYIPHSLSSHKPEEHEFKGAMSRYQDFNAIAGV
notes: AtOSCA3.1 from Arabidopsis thaliana, UniprotKB Q9C8G5; also called contracted state of AtOSCA3.1; extended state of AtOSCA3.1; source: Expi293F infected by baculovirus, purified (DDM, TALON)
- stoichiometry N [3]: 2
